T1: Mcl-1, Q07820
T1 chain: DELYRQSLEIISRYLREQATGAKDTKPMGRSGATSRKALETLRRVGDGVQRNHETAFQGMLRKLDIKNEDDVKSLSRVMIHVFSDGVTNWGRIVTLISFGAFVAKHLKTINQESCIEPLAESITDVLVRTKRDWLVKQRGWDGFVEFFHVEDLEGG

T2: Bfl-1, Q16548
T2 chain: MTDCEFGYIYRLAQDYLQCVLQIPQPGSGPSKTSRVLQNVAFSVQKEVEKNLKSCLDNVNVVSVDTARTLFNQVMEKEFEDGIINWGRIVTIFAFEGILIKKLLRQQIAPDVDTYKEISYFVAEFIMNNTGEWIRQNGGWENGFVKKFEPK


Target: T1, Mcl-1, Q07820
Assay: peptide SPOT array, c-Myc-tagged receptor at 1 uM or 100 nM, anti-c-Myc-Cy3

Binder | SPOT signal as a fraction of Bim BH3's signal on the same receptor and array
ISSLDLLPYGDRYIAKVLKNSIHEKF [IQGAP2] | 0.34
RGAMLSLATGDAHSGSDLSLLVPEIE | 0.04
SKFVILSAHKDVFIGDTLSRQAKAAD [BCAR1] | 0.02
PAKKMTLSEIDRWICDNFPYYKNAGI [FOXJ2] | 0.29
NDDTPWIARTLDNLLDELTAILSAPA [GBP6] | 0.04
VILADPDGHEICFVGDEAFRELSKMD [GLOD4] | 0.01
RAKASSLSEEDKHFADGLETDGTLQK [DSN1] | 0.04
ERAISCMGQIDCNLGDNLGSDLPNTL | 0.01
EKVLIFGGDILKFALDALLALWRVER [ADCY10] | 0.03
KKCQDMIMTEDTNAGDDVVVFYNDKA [ITPR3] | 0.01
LRVSTKIGSCDKSVGEVMGIGRSFEE | 0.02
GLFSATSGVDLKYVADTFGQEVRPVS [DDX7] | 0.02
TLHFNQRGTWDASGSDDLKVVVWDWV [DCAF8] | 0.02
HGTSSRIGSSMKSVGEVMAIGRTFEE [CPS1] | 0.02
LRVSTKIGSCMKSVLEVMGIGRSFEE | 0.04
CHGLRELALNYHLLSDELLLALSSEK [FBXL3] | 0.06
RGAMLSLATGLAHSLSDLSLLVPEIE | 0.05
ERAISCMGQIICNLGDNLGSDLPNTL | 0.01

Second part, the binder after the results:

SPOT signal as a fraction of Bim BH3's signal on the same receptor and array | Binder
0.33 | YIVLGLRKTTLQKVGKEVAELVGRVG [NLRX1]
0.18 | NKSLTTLGLVISSLADQAAGKGKSKF [KIF13A]
0.53 | SRQPRDFGDSLARGGKGFLRGVVGGV [VPS13C]
0.085 | VLSRIEAGRSLKSVLDEFGISKSTFY [TIGD7]
0.02 | HPRKESQVRQLAWVGDGVWVSIRLDS [SPAG9]
0.05 | ADVHGIWSRLFCDFLDEFEVLDTTGE [UBA6]
0.05 | IQENVDISTVYQIFLDEVLGSGQFGI [PRKD3]
0.06 | GYPFNDVCQWFIDRADLIFVVFDPTK [SRL]
0.02 | AVLCVECGYKYRFFLEDAEIAARELN [MSH3]
0.02 | VFDDLRGSVSDSWVGDSTGVILVLTT
0.05 | AIKWDPTGNLLASCLDDMTLKIWSMK [TBL1XR1]
0.03 | RVSWNITGTVDASSGDDGCVRLWKAN [SEH1L]
0.01 | RCELQICGLADADAGEYLCVCGQERT [OBSCN]
0.01 | VFDDLRGSVSLSWVGDSTGVILVLTT
0.12 | NKTMTQLSSTLARCLKDILGFAVMFF [PKD2L1]

Target: T2, Bfl-1, Q16548
Assay: as above

Binder | SPOT signal as a fraction of Bim BH3's signal on the same receptor and array
ISSLDLLPYGDRYIAKVLKNSIHEKF [IQGAP2] | 0.51
PAKKMTLSEIDRWICDNFPYYKNAGI [FOXJ2] | 0.26
NDDTPWIARTLDNLLDELTAILSAPA [GBP6] | 0.04
RAKASSLSEEDKHFADGLETDGTLQK [DSN1] | 0.03
SWFIQSLCAMLKQYLDKLEFMHILTR [CASP3] | 0.21
CHGLRELALNYHLLSDELLLALSSEK [FBXL3] | 0.04
THFLDEEVKLIKKMGDHLTNLHRLGG [FTL] | 0.04
MEMYQPSAVVLQCGADSLSGDRLGCF [HDAC2] | 0.03

Continued, values first:

SPOT signal as a fraction of Bim BH3's signal on the same receptor and array | Binder
0.26 | YIVLGLRKTTLQKVGKEVAELVGRVG [NLRX1]
0.0567 | KQMKEDGACLFRAVLDQVYGDQDMHE
0.0533 | KQMKEDGACLFRAVADQVYGDQDMHE
0.04 | ADVHGIWSRLFCDFLDEFEVLDTTGE [UBA6]
0.05 | IQENVDISTVYQIFLDEVLGSGQFGI [PRKD3]
0.05 | GYPFNDVCQWFIDRADLIFVVFDPTK [SRL]
0.0533 | KQMKEDGACLDRAVADQVYGDQDMHE

target: Bcl-xL, Q07817; assay: as above
Sequence (Q07817 1-209): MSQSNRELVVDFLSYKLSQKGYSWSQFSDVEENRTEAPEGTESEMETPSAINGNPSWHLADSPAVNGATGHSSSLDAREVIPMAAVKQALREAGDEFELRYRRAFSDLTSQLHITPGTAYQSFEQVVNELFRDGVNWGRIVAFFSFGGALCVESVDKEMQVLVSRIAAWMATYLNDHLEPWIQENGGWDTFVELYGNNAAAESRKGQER

Binder | SPOT signal as a fraction of Bim BH3's signal on the same receptor and array
ISSLDLLPYGDRYIAKVLKNSIHEKF [IQGAP2] | 0.64
RGAMLSLATGDAHSGSDLSLLVPEIE | 0.06
SKFVILSAHKDVFIGDTLSRQAKAAD [BCAR1] | 0.01
PAKKMTLSEIDRWICDNFPYYKNAGI [FOXJ2] | 0.58
NDDTPWIARTLDNLLDELTAILSAPA [GBP6] | 0.05
VILADPDGHEICFVGDEAFRELSKMD [GLOD4] | 0.02
RAKASSLSEEDKHFADGLETDGTLQK [DSN1] | 0.06
SWFIQSLCAMLKQYLDKLEFMHILTR [CASP3] | 0.27
ERAISCMGQIDCNLGDNLGSDLPNTL | 0.01
EKVLIFGGDILKFALDALLALWRVER [ADCY10] | 0.04
KKCQDMIMTEDTNAGDDVVVFYNDKA [ITPR3] | 0.02
LRVSTKIGSCDKSVGEVMGIGRSFEE | 0.02
GLFSATSGVDLKYVADTFGQEVRPVS [DDX7] | 0.02
TLHFNQRGTWDASGSDDLKVVVWDWV [DCAF8] | 0.02
HGTSSRIGSSMKSVGEVMAIGRTFEE [CPS1] | 0.02
LRVSTKIGSCMKSVLEVMGIGRSFEE | 0.04
CHGLRELALNYHLLSDELLLALSSEK [FBXL3] | 0.07
RGAMLSLATGLAHSLSDLSLLVPEIE | 0.06
ERAISCMGQIICNLGDNLGSDLPNTL | 0.01

Continued, values first:

SPOT signal as a fraction of Bim BH3's signal on the same receptor and array | Binder
0.36 | YIVLGLRKTTLQKVGKEVAELVGRVG [NLRX1]
0.4 | NKSLTTLGLVISSLADQAAGKGKSKF [KIF13A]
1 | SRQPRDFGDSLARGGKGFLRGVVGGV [VPS13C]
0.08 | VLSRIEAGRSLKSVLDEFGISKSTFY [TIGD7]
0.02 | HPRKESQVRQLAWVGDGVWVSIRLDS [SPAG9]
0.06 | ADVHGIWSRLFCDFLDEFEVLDTTGE [UBA6]
0.08 | IQENVDISTVYQIFLDEVLGSGQFGI [PRKD3]
0.07 | GYPFNDVCQWFIDRADLIFVVFDPTK [SRL]
0.02 | AVLCVECGYKYRFFLEDAEIAARELN [MSH3]
0.02 | VFDDLRGSVSDSWVGDSTGVILVLTT
0.07 | AIKWDPTGNLLASCLDDMTLKIWSMK [TBL1XR1]
0.07 | RVSWNITGTVDASSGDDGCVRLWKAN [SEH1L]
0.01 | RCELQICGLADADAGEYLCVCGQERT [OBSCN]
0.02 | VFDDLRGSVSLSWVGDSTGVILVLTT
0.19 | NKTMTQLSSTLARCLKDILGFAVMFF [PKD2L1]

— PMC4072508, “Genome-Wide Prediction and Validation of Peptides That Bind Human Prosurvival Bcl-2 Proteins” (PLoS Computational Biology, 2014)
